Experimental data from publication PMC3797800, “The Coordination of Cell Growth during Fission Yeast Mating Requires Ras1-GTP Hydrolysis” (PLoS ONE, 2013).

Target: T1, CFP-Ras1 (S. pombe, UniProt P08647 1-219)
T1 construct: Ras1, small GTPase of Schizosaccharomyces pombe; ORF amplified from the start codon to the stop codon and cloned behind CFP; also called Ras1-GTP; source: S. pombe (strain JY1618, Δras1Δgap1), expressed from pREP4x (nmt1 promoter), in living cells; not shown: CFP, N-terminal, kept
T1 sequence (looked up): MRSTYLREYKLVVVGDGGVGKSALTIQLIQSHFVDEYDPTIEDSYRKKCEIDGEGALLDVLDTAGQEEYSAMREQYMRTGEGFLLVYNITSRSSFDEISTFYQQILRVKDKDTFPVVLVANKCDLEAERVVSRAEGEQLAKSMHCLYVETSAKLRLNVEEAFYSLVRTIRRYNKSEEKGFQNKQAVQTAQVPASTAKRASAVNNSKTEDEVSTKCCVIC
Assay: FRET or BRET; FACS-based FRET (405 nm excitation, 585/42 nm emission), living S. pombe cells co-expressing CFP and YFP fusions; percent of cells with a FRET signal over 0-8 h after 10 μM pheromone
Conditions: partners not purified

B1: Gap1-YFP (natural protein, S. pombe, UniProt P33277 1-766, looked up)
chain: MTKRHSGTLSSSVLPQTNRLSLLRNRESTSVLYTIDLDMESDVEDAFFHLDRELHDLKQQISSQSKQNFVLERDVRYLDSKIALLIQNRMAQEEQHEFAKRLNDNYNAVKGSFPDDRKLQLYGALFFLLQSEPAYIASLVRRVKLFNMDALLQIVMFNIYGNQYESREEHLLLSLFQMVLTTEFEATSDVLSLLRANTPVSRMLTTYTRRGPGQAYLRSILYQCINDVAIHPDLQLDIHPLSVYRYLVNTGQLSPSEDDNLLTNEEVSEFPAVKNAIQERSAQLLLLTKRFLDAVLNSIDEIPYGIRWVCKLIRNLTNRLFPSISDSTICSLIGGFFFLRFVNPAIISPQTSMLLDSCPSDNVRKTLATIAKIIQSVANGTSSTKTHLDVSFQPMLKEYEEKVHNLLRKLGNVGDFFEALELDQYIALSKKSLALEMTVNEIYLTHEIILENLDNLYDPDSHVHLILQELGEPCKSVPQEDNCLVTLPLYNRWDSSIPDLKQNLKVTREDILYVDAKTLFIQLLRLLPSGHPATRVPLDLPLIADSVSSLKSMSLMKKGIRAIELLDELSTLRLVDKENRYEPLTSEVEKEFIDLDALYERIRAERDALQDVHRAICDHNEYLQTQLQIYGSYLNNARSQIKPSHSDSKGFSRGVGVVGIKPKNIKSSNTVKLSSQQLKKESVLLNCTIPEFNVSNTYFTFSSPSTDNFVIAVYQRGHSKVLVEVCICLDDVLQRRYASNPVVDLGFLTFEANKLYHLFEQLFLRK
notes: ORF amplified from the start codon, stop codon removed, cloned in front of YFP; source: S. pombe, expressed from pREP3x (nmt1 promoter), in living cells; not shown: YFP, C-terminal, kept
**Q.** With B1 as the binder, how does the “fold increase of the percent of cells with a FRET signal, 30 min pheromone against time 0” value read?
**A.** 2 fold
